# Experimental data reported in paper PMC5651819, “AtSPX1 affects the AtPHR1–DNA-binding equilibrium by binding monomeric AtPHR1 in solution” (Biochemical Journal, 2017).
# B1: GST–AtSPX1 (N-terminal GST-tagged full-length AtSPX1) (natural protein, Arabidopsis thaliana, UniProt Q8LBH4 1-256, looked up)
# chain: MKFGKSLSNQIEQTLPEWQDKFLSYKELKKRLKLIGSKTADRPVKRLRLDEFSVGISKEEINFIQLLEDELEKFNNFFVEKEEEYIIRLKEFRDRIAKAKDSMEKMIKIRKEIVDFHGEMVLLENYSALNYTGLVKILKKYDKRTGDLMRLPFIQKVLQQPFYTTDLLFKLVKESEAMLDQIFPANETESEIIQAELSEHKFMESLHMKSTIAALRVLKEIRSGSSTVSVFSLPPLQLNGLDETWKKIPLLEQEAK
# notes: AtSPX1, Arabidopsis thaliana, At5G20150.1, full-length cDNA in pGEX-2T via BamHI and EcoRI; also called GST–SPX1; not shown: GST, N-terminal, kept
# Biological target: T1, MBP–AtdPHR1 (DNA-binding domain and coiled-coil domain of AtPHR1 fused to maltose-binding protein) (Arabidopsis thaliana, UniProt Q94CL7 208-362)
# T1 construct: cloned in pMAL-c2x via BamHI and HindIII; the methods print 208–362, and the predicted mass of 60 651 fits 208–362 with MBP; also called MBPdAtPHR1; MBPdPHR1; source: E. coli BL21-gold (DE3), purified (amylose resin, IEX on HiTrap Q-HP); not shown: MBP, N-terminal, kept
# T1 sequence (Q94CL7 208-362): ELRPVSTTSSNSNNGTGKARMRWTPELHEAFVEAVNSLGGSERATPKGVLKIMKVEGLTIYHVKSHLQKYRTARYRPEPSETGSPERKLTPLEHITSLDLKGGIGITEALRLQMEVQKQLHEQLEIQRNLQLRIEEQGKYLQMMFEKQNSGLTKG
# Test: pull-down; MBP–AtdPHR1 from cell lysate immobilised on amylose matrix and washed, incubated with affinity-purified GST–AtSPX1 for 2 h at 4°C, eluted with 10 mM maltose, anti-GST blot; buffer with Pi (PBS pH 7.4, 200 mM NaCl, 1 mM EDTA, 1 mM DTT), compared with buffer without Pi (20 mM Tris pH 7.5, 200 mM NaCl, 1 mM EDTA, 1 mM DTT)
# Conditions: both partners purified
binder,measurement,value
B1,fold more in elution fraction E1 in the presence of phosphate than in its absence,1.5 fold
same,fold more in elution fraction E2 in the presence of phosphate than in its absence,3.5 fold
